Laboratory results from patent US20240109971A1 (MONASH UNIVERSITY, published 2024).
Numbering of substitutions follows the chain as printed. Read-outs that look alike come from different tables or passages of the source.

T1: Peptide 2 (amino acid position 18-46 of the human CCR6) (human, biotinylated)
T1 construct: also called AA 18 to 46
T1 peptide: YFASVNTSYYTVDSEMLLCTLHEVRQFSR

T2: Peptide 1 (amino acid position 1-28 of the human CCR6) (human, biotinylated)
T2 construct: also called first 28 AA
T2 peptide: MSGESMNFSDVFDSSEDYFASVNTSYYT

T3: hCXCR3 (human, UniProt P49682 1-368)
T3 construct: whole, on cells; also called human CXCR3 transfected L1.2 cells
T3 sequence (looked up): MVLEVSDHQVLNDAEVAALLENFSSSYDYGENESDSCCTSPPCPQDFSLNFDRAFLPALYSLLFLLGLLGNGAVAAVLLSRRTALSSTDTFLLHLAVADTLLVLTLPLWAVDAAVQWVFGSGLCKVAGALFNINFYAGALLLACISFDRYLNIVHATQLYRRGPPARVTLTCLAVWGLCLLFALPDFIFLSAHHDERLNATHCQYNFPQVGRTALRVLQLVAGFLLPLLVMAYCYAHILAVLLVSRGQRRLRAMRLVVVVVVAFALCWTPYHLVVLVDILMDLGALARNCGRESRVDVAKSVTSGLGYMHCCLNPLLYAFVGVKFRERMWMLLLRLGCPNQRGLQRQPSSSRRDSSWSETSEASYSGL

T4: hCXCR2 (human, UniProt P25025 1-360)
T4 construct: whole, on cells; also called human CXCR2 transfected L1.2 cells
T4 sequence (looked up): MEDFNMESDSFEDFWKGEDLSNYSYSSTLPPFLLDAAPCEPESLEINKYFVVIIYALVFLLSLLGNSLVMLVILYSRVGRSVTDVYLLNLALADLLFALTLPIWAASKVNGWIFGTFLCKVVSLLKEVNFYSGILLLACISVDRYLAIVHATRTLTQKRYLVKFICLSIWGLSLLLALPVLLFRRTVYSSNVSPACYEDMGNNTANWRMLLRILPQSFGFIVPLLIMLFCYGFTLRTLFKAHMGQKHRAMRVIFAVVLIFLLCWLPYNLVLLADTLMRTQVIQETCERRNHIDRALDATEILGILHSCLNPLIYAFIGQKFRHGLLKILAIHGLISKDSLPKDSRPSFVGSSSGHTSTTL

T5: hCXCR1 (human, UniProt P25024 1-350)
T5 construct: whole, on cells; also called hCXCRI; human CXCR1 transfected L1.2 cells
T5 sequence (looked up): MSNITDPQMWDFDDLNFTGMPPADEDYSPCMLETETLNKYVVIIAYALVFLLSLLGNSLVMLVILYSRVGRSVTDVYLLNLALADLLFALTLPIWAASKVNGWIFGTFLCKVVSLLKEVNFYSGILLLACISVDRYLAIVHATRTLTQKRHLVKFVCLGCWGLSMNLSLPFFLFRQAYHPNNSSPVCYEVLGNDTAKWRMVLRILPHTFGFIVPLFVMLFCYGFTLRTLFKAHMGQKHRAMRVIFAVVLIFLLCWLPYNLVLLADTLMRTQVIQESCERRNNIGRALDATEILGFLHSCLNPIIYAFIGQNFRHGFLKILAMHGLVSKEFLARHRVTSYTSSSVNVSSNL

T6: human CCR6 (human, UniProt P51684 1-374)
T6 construct: also called hCCR6; CD196
T6 sequence: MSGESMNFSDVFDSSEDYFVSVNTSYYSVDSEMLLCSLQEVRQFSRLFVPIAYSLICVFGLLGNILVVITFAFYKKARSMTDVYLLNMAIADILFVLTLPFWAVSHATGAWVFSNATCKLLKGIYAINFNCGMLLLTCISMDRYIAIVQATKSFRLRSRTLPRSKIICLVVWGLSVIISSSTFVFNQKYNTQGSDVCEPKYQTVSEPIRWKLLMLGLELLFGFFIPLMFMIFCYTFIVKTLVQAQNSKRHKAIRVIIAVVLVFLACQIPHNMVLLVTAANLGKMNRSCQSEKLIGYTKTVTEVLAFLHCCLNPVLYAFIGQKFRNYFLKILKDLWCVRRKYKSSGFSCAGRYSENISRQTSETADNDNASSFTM

B1: AB7 (antibody, V domains shown)
VH: QDQLQQSGVALARPGASVKLSCKASEYTFKSFGLGWVKQRPGQGLEWIGEIYPRSGNTYYNEKVKGKVRLTADKSSNSVYMEFRSLTSEDSAVYFCARSPYDGYFDYWGQGTTLTVS
VL: DVVMTHSPLSLPVSLGDQASISCRSSQSLLHINGNTYLHWYLQKPGQSPKLLIYRVSNRLSGVPDRFSGSGSGTDFTLKISRVEAEDLGVYFCSQSTHVPRTFGGGTKLEIKR
notes: Mouse hybridoma antibody; also called clone AB7
B2: AB3 (antibody, V domains shown)
VH: EVNLVESGGGLVQPGGSLKLSCAASGFTFSDYYLYWVRQTPEKRLEWVTYITNGGGRTYYSDTVRGRFTISRDNAKNTLYLQMSRLKSEDTAMYYCASPPLGGAWFGYWGQGTLVTVS
VL: DVLMTQTPLSLPVSLGDQASISCRSSQSIVHSNGNTYLEWYLQKPGQSPKLLIYKVSKRFSGVPDRFSGSGSGTDFTLKISRVEAEDLGVYYCFQGSHVPLTFGAGTKLELKR
notes: Mouse hybridoma antibody, isotype IgG1; also called AB3-N21
B3: AB1 (antibody, V domains shown)
VH: B2 VH with L34M, G55D, A97T
VL: B2 VL
notes: Mouse hybridoma antibody, isotype IgG1; also called AB1-O17
B4: mouse AB6 mAb (antibody, V domains shown)
VH: B2 VH with N3K, T28P, T49A, G55V, T63S, R65K, A92S, A97T, G107A
VL: B2 VL
notes: Mouse hybridoma antibody, isotype IgG2b; also called mAB6; AB6-K5
B5: AB11 (antibody, V domains shown)
VH: B2 VH with K19I, A23E, T28S, L34M, T63A, V64I, K76R, A97T
VL: B2 VL with L3S, I29L
notes: Mouse hybridoma antibody, isotype IgG1; also called AB11-M9
B6: AB2 (antibody, V domains shown)
VH: B2 VH with A23E, T28S, L34M, V64I, K76R, A97T
VL: B2 VL with L3S, I29L
notes: Mouse hybridoma antibody, isotype IgG1; also called AB2-O17
B7: AB4 (antibody, V domains shown)
VH: B2 VH with L34M
VL: B2 VL with I29L, E84G
notes: Mouse hybridoma antibody, isotype IgG2b; also called AB4-K15
B8: AB5 (antibody, V domains shown)
VH: B2 VH with A23E, L34M, G55A, G107A
VL: B2 VL with L3S, I29L
notes: Mouse hybridoma antibody, isotype IgG1; also called AB5-M19

What was measured:
[1] = biological target: T1, Peptide 2 (amino acid position 18-46 of …); assay: ELISA, biotinylated peptide on a streptavidin-coated plate
Protocol: (§1) Two overlapping biotinylated peptides spanning the entire N-terminal region of human CCR6 were then synthesized and used in more defined anti-CCR6 mAb epitope mapping studies. Peptide 1 ([…], SEQ ID NO: 2) corresponds to amino acid position 1-28 of the human CCR6 and Peptide 2 ([…], SEQ ID NO: 101) corresponds to amino acid position 18-46 of the human CCR6. Briefly, multiwell plates were coated with streptavidin and washed before the biotinylated peptides were added to separate wells and incubated to facilitate binding of the peptides to the plate. Different anti-human CCR6 antibodies were then tested by adding the respective antibodies to the wells of the plate and incubating the plate. An isotype control and buffer only were included as negative controls. Following washing, appropriate conjugated antibodies were added and the plates were incubated. The plates were washed again and binding of the antibodies to the immobilised peptides was visualised (FIGS. 8 and 9).

[2] = biological target: T2, Peptide 1 (amino acid position 1-28 of …); assay: as above
Protocol: as §1

hCXCR3 [3] = biological target: T3, hCXCR3; assay: flow cytometry, hybridoma culture supernatant on L1.2/hCXCR3 transfectants
hCXCR2 [4] = biological target: T4, hCXCR2; assay: flow cytometry, hybridoma culture supernatant on L1.2/hCXCR2 transfectants
hCXCR1 [5] = biological target: T5, hCXCR1; assay: flow cytometry, hybridoma culture supernatant on L1.2/hCXCR1 transfectants
human CCR6 [6] = biological target: T6, human CCR6; assay: flow cytometry, hybridoma culture supernatant on L1.2/hCCR6 transfectants
hCXCR3 [7] = biological target: T3, hCXCR3; assay: flow cytometry, hybridoma culture supernatant on L1.2/hCXCR3 transfectants; remark: listed apart in the source
Protocol: (§2) Monoclonal antibodies reactive with CCR6 were identified using human CCR6 transfected L1.2 cells, and untransfected L1.2 cells, or L1.2 cells transfected with unrelated or closely receptors such as hCXCRI, hCXCR2 or hCXCR3 using immunofluorescent staining and analysis using a FACSCalibur (BD Biosciences). Monoclonal antibody staining of cells was performed using standard procedures as described previously (Lee et al., 2006, Nat. Biotech. 24:1279-1284).
(§3) L1.2 transfectants expressing high levels of hCCR6 were used to immunize mice, and approximately 40 monoclonal antibodies were initially identified via flow cytometry that reacted with L1.2 cells transfected with hCCR6, of which approximately 10 reacted specifically with L1.2/hCCR6 transfectants but not with untransfected L1.2 cells or with L1.2 cells transfected with the closely related receptors hCXCRI, hCXCR2 or hCXCR3 (FIG. 3).

hCXCR2 [8] = biological target: T4, hCXCR2; assay: flow cytometry, hybridoma culture supernatant on L1.2/hCXCR2 transfectants; remark: listed apart in the source
Protocol: as §2, §3

hCXCR1 [9] = biological target: T5, hCXCR1; assay: flow cytometry, hybridoma culture supernatant on L1.2/hCXCR1 transfectants; remark: listed apart in the source
Protocol: as §2, §3

human CCR6 [10] = biological target: T6, human CCR6; assay: competition with 125I-MIP-3α for L1.2/hCCR6 transfectants, partially purified mAb
Protocol: For ligand binding analysis, recombinant human CCL20 (MIP3α) (“ligand”) was obtained from Peprotech (New Jersey, USA). […] Cells were washed once in binding buffer (50 mM Hepes, pH 7.5, 1 mM CaCl, 5 mM MgCb, 0.5% BSA) and resuspended in binding buffer at a concentration of 2.5×10^6 cells/ml. Cold Purified monoclonal antibody or diluted hybridoma culture medium (cold competitor) was added to a 96-well plate followed by an equal volume (40 μl) binding buffer containing 1×10^5 cells. Cells and competitor were preincubated at room temperature for 15 min. Then radiolabeled ligand (final concentration 0.5-2 nM) was added to each well to give a final reaction volume of 120 μl. After a 60-min incubation at room temperature, the cells were washed three times with 1 ml of binding buffer containing 150 mM NaCl. The radioactivity (amount of bound label) in the cell pellets was counted in a TopCount liquid scintillation counter (Packard). Non-specific background binding was calculated by incubating cells […]. Samples were assayed in duplicate.
After incubation and washing the amount of label bound to cells was measured and the percentage inhibition determined by comparison to a control reaction with no added antibody (FIGS. 1 and 5).

Binder | binding result [2] | binding result (hCXCR3 [3]) | binding result (hCXCR2 [4]) | binding result (hCXCR1 [5]) | binding result (human CCR6 [10]) | further results
B1 | binds | – | – | – | – | binding result [1]: binds
B2 | binds | no binding (tested: not given (culture supernatant)) | no binding (tested: not given (culture supernatant)) | no binding (tested: not given (culture supernatant)) | – | binding result (human CCR6 [6]): binds
B3 | binds | – | – | – | binds | binding result (hCXCR3 [7]): no binding (tested: not given (culture supernatant)); binding result (hCXCR2 [8]): no binding (tested: not given (culture supernatant)); binding result (hCXCR1 [9]): no binding (tested: not given (culture supernatant))
B4 | binds | no binding (tested: not given (culture supernatant)) | no binding (tested: not given (culture supernatant)) | no binding (tested: not given (culture supernatant)) | – | IC50 (read off the curve) (human CCR6 [10]): ~7 nM
B5 | binds | – | – | – | binds | –
B6 | binds | – | – | – | binds | –
B7 | – | no binding (tested: not given (culture supernatant)) | no binding (tested: not given (culture supernatant)) | no binding (tested: not given (culture supernatant)) | – | binding result (human CCR6 [6]): binds
B8 | – | – | – | – | binds | –
